These results are taken from patent publication US11919930B2, “Odorant receptor co-receptor” (Sumitomo Chemical Company, Limited, priority 2016, dated 2024).

The experiment relates to odorant receptor AaOR8. The experiment is described as follows: Aequorin luminescence measurement in HEK293FT cells co-expressing AaOR8 and a co-receptor, 1-octen-3-ol added. The experiment is classed as cell-based. The note with it: 1-octen-3-ol 10^-4 to 10^-10 M; for intensity of response (relative amount of luminescence) to 1-octen-3-ol: compared to cells that expressed original AaORCO or DmORCO. The procedure: HEK293FT cells (purchased from invitrogen, Inc.) were inoculated into 10-cm Petri dishes at a concentration of 3×10^6 cells/Petri dish, and the cells were cultured in DMEM medium containing 10% FBS (manufactured by Nacalai Tesque, Inc.) for about 24 hours under the conditions of 37° C. and 5% CO2. 3 μg of any one of the co-receptor expression plasmids produced, 1.5 μg of any one of the odorant receptor expression plasmids produced, and 8 μg of Aequorin expression plasmid were mixed with 12.5 μL of Plus reagent and 31.25 μL of LIPOFECTAMINE LTX (manufactured by Invitrogen, Inc.), and the mixture was maintained for 30 minutes. Subsequently this liquid mixture was transfected into the above-mentioned cells. After 4 hours from the initiation of transfection, the cells were inoculated onto a 96-well plate at a concentration of 9×10^4 cells/well, and the cells were cultured in DMEM medium containing 10% FBS (manufactured by Nacalai Tesque, Inc.) for about 24 hours under the conditions of 37° C. and 5% CO2. Thereby, transformed cells having a co-receptor expression plasmid, an odorant receptor expression plasmid, and an aequorin expression plasmid transiently incorporated therein were obtained.
Aequorin is activated when hound to a calcium ion, and oxidizes a substrate such as coelenterazine, thus emitting light. […] Therefore, whether an odorant receptor complex functions an ion channel as a result of addition of a substance to be detected, can be measured from the change in the amount of luminescence.
A culture fluid of the transformed cells was removed, and the medium was exchanged with Hanks-HEPES (20 mM, pH 7.4) including Assay buffer (0.5 μM coelenterazine h (manufactured by Promega Corporation) and 0.3% BSA. culture system was left to stand for another 4 hours at room temperature. Subsequently, a substance to be detected, which corresponded to an odorant receptor, was added to the cell culture using FLEXSTATION 3 (manufactured by Molecular Devices, LLC), and at the same time, the amount of luminescence of the cells was measured. As a control substance, the amount of luminescence in the cells to which dimethyl sulfoxide had been added was designated as 1, and the amount or luminescence of cells to which the substance to be detected was added was calculated as a relative value.
(§1) Cells into which: • an expression plasmid of odorant receptor AaOR8; • an expression plasmid of any one of co-receptor AaORCO or DmORCO, or various chimeric co-receptors Dm-AaORCO having different positions of recombination [Dm(NT-EC1)AaORCO, Dm(NT-TM3)AaOROC, Dm(NT-TM4)AaORCO, Dm(NT-TM5)AaORCO, or Dm(NT-TM6)AaORCO]; and • an aequorin expression plasmid had been incorporated were used, and the amount of luminescence was measured as explained above. 1-Octen-3-ol was used as a substance to be detected, and 1-octen-3-ol was added to the culture fluid at a concentration of 10^−4 M, 10^−5 M, 10^−6 M, 10^−7 M, 10^−8 M, 10^−9 M, or 10^−10 M. The results are presented in FIG. 1.
as §1, with “AmORCO” for “AaORCO”, “Dm-AmORCO” for “Dm-AaORCO”, “[Dm(NT-TM3)AmOROC, Dm(NT-TM4)AmORCO, Dm(NT-TM5)AmORCO,” for “[Dm(NT-EC1)AaORCO, Dm(NT-TM3)AaOROC, Dm(NT-TM4)AaORCO, Dm(NT-TM5)AaORCO,”, “Dm(NT-TM6)AmORCO];” for “Dm(NT-TM6)AaORCO];”, “2. […]” for “1.”

The mark [1] stands for this setting: compared to cells that expressed original AaORCO or AmORCO.

Changes are numbered by the printed parent chain. Entries after “also recorded” stand apart in the source; their conditions may differ.

B1: Dm(TM1-4Aa)AaORCO: chimeric co-receptor: amino-terminal domain, EC1, IC1, EC2 from Drosophila co-receptor, other domains from Aedes co-receptor; SEQ ID NO:86 (protein)
chain: MTTSMQPSKYTGLVADLMPNIRAMKYSGLFMHNFTGGSAFMRKLYSWWNLIMILLQYFAIMGNLVLNAEEVNELSGNTITTLFFTHSVTKFIYVAVNQKNFYRTLNIWNQVNTHPLFAESDARYHSIALAKMRKLLVMVMVTTVLSVVAWITITFFGDSVKMVVDHETNSSIPVEIPRLPIKSFYPWNASSGVPYFFSFIYQAYFLLFSMCQANLADVMFCSWLLFTCEQLQHLKGIMRPLMELSATLDTYRPNSAALFRVASAGSKSELILNEEKDPDTKDFDLNGIYNSKADWGAQFRAPSTLQTFGDNGINGNPNGLTKKQELMVRSAIKYWVERHKHVVRLVSAIGETYGAALLLHMLTSTIKLTLLAYQATKIDALNVYGLTVIGYLVYALAQVFLFCIFGNRLIEESSSVMEAAYSCHWYDGSEEAKTFVQIVCQQCQKAMTISGAKFFTVSLDLFASVLGAVVTYFMVLVQLK
On to B1, for which the “intensity of response (relative amount of luminescence) to 1-octen-3-ol” value is “the intensity of response to 1-octen-3-ol was decreased”.

B2: Aa(TM1-4Dm)AaORCO: chimeric co-receptor: first to fourth transmembrane domains from Drosophila co-receptor, other domains from Aedes co-receptor; SEQ ID NO:82 (protein)
chain: MNVQPTKYHGLVLDLMPNIRLMQGFGHFLFRYVNGPVLIKKVYSSVHLVFLLMQFTFILVNMAMNTGDVNELTANTITTLFFTHCITKFIYLAVNSEHFYRTLGIWNQPNSHSLFAESDARYHSIALAKMRKLFFLVMLTTVASATAWTTITFFGDSVKNVFDKETNETYTVEIPRLPIKAWYPWDAMHGMFYMISFAFQIYYVLFSMIHSNLCDVMFCSWLIFACEQLQHLKGIMRPLMELSATLDTYRPNSAALFRVASAGSKSELILNEEKDPDTKDFDLNGIYNSKADWGAQFRAPSTLQTFGDNGINGNPNGLTKKQELMVRSAIKYWVERHKHVVRLVSAIGETYGAALLLHMLTSTIKLTLLAYQATKIDALNVYGLTVIGYLVYALAQVFLFCIFGNRLIEESSSVMEAAYSCHWYDGSEEAKTFVQIVCQQCQKAMTISGAKFFTVSLDLFASVLGAVVTYFMVLVQLK
Regarding B2, the “intensity of response (relative amount of luminescence) to 1-octen-3-ol” value is recorded as “the intensity of response to 1-octen-3-ol was decreased”.

B3: Aa(NT-TM4)AmORCO: chimeric co-receptor: NT to TM4 from Aedes co-receptor, IC2 to C-terminal domain from Apis co-receptor; SEQ ID NO:108 (protein)
chain: MNVQPTKYHGLVLDLMPNIRLMQGFGHFLFRYVNGPVLIRKLYSWWNLIMILLQYFAIMGNLVMNTGDVNELTANTITTLFFTHSVTKFIYVAVNSEHFYRTLGIWNQPNSHSLFAESDARYHSIALAKMRKLLVMVMVTTVLSVVAWITITFFGDSVKNVFDKETNETYTVEIPRLPIKAWYPWDAMSGVPYFFSFIYQAYFLLFSMCQANLADVMFCSWLLFTCEQLQHLKNIMKPLMEFSATLDTVVPNSGELFKAGSAEQPKEQEPLPPVTPPQGENMLDMDLRGIYSNRTDFTTTFRPTAGMTFNGGVGPNGLTKKQEMLVRSAIKYWVERHKHIVRLVTAIGDAYGVALLLHMLTTTITLTLLAYQATKIHAVDTYAASVVGYLLYSLGQVFMLCIFGNRLIEESSSVMEAAYSCHWYDGSEEAKTFVQIVCQQCQKAMSISGAKFFTVSLDLFASVLGAMVTYFMVLVQLK
For B3, the “response (relative amount of luminescence) to 1-octan-3-ol” value under setting [1] is given as “responded more strongly to 1-octan-3-ol”.

B4: Ag(NT-TM4)AmORCO: chimeric co-receptor: NT to TM4 from Anopheles co-receptor, IC2 to C-terminal domain from Apis co-receptor; SEQ ID NO:114 (protein)
chain: MQVQPTKYVGLVADLMPNIRLMQASGHFLFRYVTGPILIRKVYSWWTLAMVLIQFFAILGNLATNADDVNELTANTITTLFFTHSVTKFIYFAVNSENFYRTLAIWNQTNTHPLFAESDARYHSIALAKMRKLLVLVMATTVLSVVAWVTITFFGESVKTVLDKATNETYTVDIPRLPIKSWYPWNAMSGPAYIFSFIYQIYFLLFSMVQSNLADVMFCSWLLLACEQLQHLKNIMKPLMEFSATLDTVVPNSGELFKAGSAEQPKEQEPLPPVTPPQGENMLDMDLRGIYSNRTDFTTTFRPTAGMTFNGGVGPNGLTKKQEMLVRSAIKYWVERHKHIVRLVTAIGDAYGVALLLHMLTTTITLTLLAYQATKIHAVDTYAASVVGYLLYSLGQVFMLCIFGNRLIEESSSVMEAAYSCHWYDGSEEAKTFVQIVCQQCQKAMSISGAKFFTVSLDLFASVLGAMVTYFMVLVQLK
As for B4, the “concentration of 1-octan-3-ol at which cells responded” value under setting [1] is given as “responded to 1-octan-3-ol at a lower concentration”.

B5: Dm(NT-TM4)AaORCO: chimeric co-receptor: NT to TM4 (residues 1-234) from Drosophila co-receptor, IC2 to C-terminal domain from Aedes co-receptor; SEQ ID NO:71 (protein)
chain: MTTSMQPSKYTGLVADLMPNIRAMKYSGLFMHNFTGGSAFMKKVYSSVHLVFLLMQFTFILVNMALNAEEVNELSGNTITTLFFTHCITKFIYLAVNQKNFYRTLNIWNQVNTHPLFAESDARYHSIALAKMRKLFFLVMLTTVASATAWTTITFFGDSVKMVVDHETNSSIPVEIPRLPIKSFYPWNASHGMFYMISFAFQIYYVLFSMIHSNLCDVMFCSWLIFACEQLQHLKGIMRPLMELSATLDTYRPNSAALFRVASAGSKSELILNEEKDPDTKDFDLNGIYNSKADWGAQFRAPSTLQTFGDNGINGNPNGLTKKQELMVRSAIKYWVERHKHVVRLVSAIGETYGAALLLHMLTSTIKLTLLAYQATKIDALNVYGLTVIGYLVYALAQVFLFCIFGNRLIEESSSVMEAAYSCHWYDGSEEAKTFVQIVCQQCQKAMTISGAKFFTVSLDLFASVLGAVVTYFMVLVQLK
Turning to B5, the “intensity of response (relative amount of luminescence) to 1-octen-3-ol” value was “responded more strongly to 1-octen-3-ol; also recorded: the intensity of response to 1-octen-3-ol was higher”.

B6: Dm(NT-636)AaORCO: chimeric co-receptor: N-terminus to residue 212 from Drosophila co-receptor, residue 213 to C-terminus from Aedes co-receptor; SEQ ID NO:78 (protein)
chain: B5 chain with S213A, C216A, I225L, A227T
On to B6, for which the “intensity of response (relative amount of luminescence) to 1-octen-3-ol” value was “the intensity of response to 1-octen-3-ol was decreased”.

B7: Dm(792)AaORCO: chimeric co-receptor: N-terminus to residue 264 from Drosophila co-receptor, residue 265 to C-terminus from Aedes co-receptor; SEQ ID NO:74 (protein)
chain: B5 chain with R239K, T247S, V261S, A262L
Regarding B7, the “intensity of response to 1-octen-3-ol” value (compared to cells that expressed original AaORCO) is recorded as “the intensity of response to 1-octen-3-ol was decreased”.
